Source: patent US20250319154A1

Target: leukocyte function antigen (LFA-1) on THP-1 cells (human) (UniProt P20701)
Test: cell-based or functional assay

leukocyte function antigen (LFA-1) on THP-1 cells (human), sequence (P20701 26-1170, chain 1 of 2): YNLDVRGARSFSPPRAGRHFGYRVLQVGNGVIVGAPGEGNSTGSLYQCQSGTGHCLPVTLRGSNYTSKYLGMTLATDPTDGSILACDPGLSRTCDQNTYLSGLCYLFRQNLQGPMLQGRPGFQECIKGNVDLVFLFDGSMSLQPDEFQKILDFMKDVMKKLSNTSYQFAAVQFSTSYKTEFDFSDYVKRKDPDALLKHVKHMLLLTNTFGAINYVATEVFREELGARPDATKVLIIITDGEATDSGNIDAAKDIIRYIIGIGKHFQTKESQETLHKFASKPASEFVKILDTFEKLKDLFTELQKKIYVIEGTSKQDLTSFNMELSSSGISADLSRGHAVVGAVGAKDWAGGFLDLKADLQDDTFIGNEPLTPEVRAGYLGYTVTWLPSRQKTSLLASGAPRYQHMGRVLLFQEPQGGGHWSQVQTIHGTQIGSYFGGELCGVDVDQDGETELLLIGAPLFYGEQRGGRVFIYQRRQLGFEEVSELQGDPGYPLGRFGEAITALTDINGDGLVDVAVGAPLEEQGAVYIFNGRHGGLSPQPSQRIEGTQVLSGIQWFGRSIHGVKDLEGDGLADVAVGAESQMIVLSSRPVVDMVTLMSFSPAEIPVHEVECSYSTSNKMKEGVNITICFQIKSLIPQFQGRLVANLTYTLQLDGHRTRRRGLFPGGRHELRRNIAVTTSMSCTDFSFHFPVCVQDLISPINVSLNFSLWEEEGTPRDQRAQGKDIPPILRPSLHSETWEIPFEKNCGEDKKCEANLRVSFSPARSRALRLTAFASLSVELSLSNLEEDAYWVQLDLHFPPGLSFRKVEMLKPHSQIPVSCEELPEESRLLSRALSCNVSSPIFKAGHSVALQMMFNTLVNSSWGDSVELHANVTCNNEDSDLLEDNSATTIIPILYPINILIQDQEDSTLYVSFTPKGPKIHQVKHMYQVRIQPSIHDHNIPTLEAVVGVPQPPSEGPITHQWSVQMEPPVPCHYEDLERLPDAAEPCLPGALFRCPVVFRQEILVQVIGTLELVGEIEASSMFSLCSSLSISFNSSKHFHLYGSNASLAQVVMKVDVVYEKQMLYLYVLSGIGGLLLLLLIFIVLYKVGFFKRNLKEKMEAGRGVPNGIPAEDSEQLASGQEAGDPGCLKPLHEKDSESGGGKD
leukocyte function antigen (LFA-1) on THP-1 cells (human), sequence (P05107 23-769, chain 2 of 2, further chain): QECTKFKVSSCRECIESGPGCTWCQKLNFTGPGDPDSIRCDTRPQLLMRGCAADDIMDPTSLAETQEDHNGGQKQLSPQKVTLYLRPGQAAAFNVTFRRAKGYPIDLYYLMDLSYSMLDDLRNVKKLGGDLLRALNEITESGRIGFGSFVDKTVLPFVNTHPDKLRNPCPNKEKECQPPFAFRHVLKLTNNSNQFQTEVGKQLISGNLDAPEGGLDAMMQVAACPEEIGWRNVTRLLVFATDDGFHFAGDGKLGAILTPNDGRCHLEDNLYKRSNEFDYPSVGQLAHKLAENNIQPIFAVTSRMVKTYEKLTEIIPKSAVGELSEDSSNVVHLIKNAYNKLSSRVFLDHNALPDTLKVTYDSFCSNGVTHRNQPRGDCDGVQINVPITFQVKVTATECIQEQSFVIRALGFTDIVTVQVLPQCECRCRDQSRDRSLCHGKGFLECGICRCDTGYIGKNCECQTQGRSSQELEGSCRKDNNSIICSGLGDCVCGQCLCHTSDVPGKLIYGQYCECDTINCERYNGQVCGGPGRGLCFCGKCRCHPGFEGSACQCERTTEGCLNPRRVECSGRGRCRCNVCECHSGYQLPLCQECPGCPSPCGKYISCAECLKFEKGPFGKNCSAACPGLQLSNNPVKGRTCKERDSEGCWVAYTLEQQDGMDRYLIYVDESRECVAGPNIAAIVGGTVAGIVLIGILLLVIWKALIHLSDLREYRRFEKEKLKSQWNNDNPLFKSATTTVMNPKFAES

Leukotoxin (LtxA) polypeptide isolated from Aggregatibacter actinomycetemcomitans (from UniProt P16462 1-1055)
10%-maximal effective concentration (EC10), calculated from an in vitro model using THP-1 cells: 0.02 mg/L
